This note sets out measurements from the nanobody polyreactivity screen of Harvey et al. (2022).

The series is described as follows: yeast display, Sf9 membrane polyspecificity reagent, FACS + sequencing; frameworks hold sequencing errors. A digest of the protocol: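 Nanobodies came from a synthetic yeast display library in Saccharomyces cerevisiae BJ5465, induced with galactose for 36–48 hours and stained for 1 hour at 4 °C with 10% biotinylated, detergent-solubilized Sf9 membrane reagent. Cells were enriched on streptavidin microbeads and then FACS-sorted, with low and high (top ~1%) gates set on anti-HA fluorescence for expression and streptavidin fluorescence for reagent binding. Each polyreactivity label reflects the gate a clone came from. Genes were amplified by colony PCR, sequenced by MiSeq 2 × 250 and filtered by CDR length.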
Regarding “QVQLVESGGGLVQAGGSLRLSSAASGRTFYRYVMGWYRQAPGKERELVADITRSGGSTYYADSVKGRFTISRDNAKNTVYLQMNSLKPEDTAVYYCAAEFLSSVHVRGMDYWGQGTQVTVSS”, the “polyreactivity (PSR sort gate)” value is “high polyreactivity”.

For “QVQLVESGGGLVQAGGSLRLSSAASGRTTKVYAMGWYRQGPGKPRELVARITSSGVRRYYADSVKGRFTISRDNAKNTVYLHMNSLKPEDTAVYYCGKDARALWLHSGIYDYSGQGTQVTVSS”, the “polyreactivity (PSR sort gate)” value is “low polyreactivity”.

For “QVQLVESGGGLVQAGGSLRLSSAASGSIFARYAMGWYRPAPVKERELVAAISGRGGSTYYADSVKGRFTISRDNAKNTVYLQMNSLKPEDTAVYYCNAVGHTSIRRALDILDYWGQGPQVTVSS”, the “polyreactivity (PSR sort gate)” value is given as “high polyreactivity”.

Take “QVQLVESGGGLVQAGGSLRLSSAASGSIFFRNAMGWYRKAPGKERELVAAISRSGGNTYYADSVKGRFTISRDNAKNTVYLQMNSLKPEDTAVYYCAKYRTLYWYDYWGQGTQVTVSS”: the “polyreactivity (PSR sort gate)” value is given as “high polyreactivity”.

In the case of “QVQLVESGGGLVQAGGSLRLSSAASGSIFIPYAMGWYRQAPGKERELVAAISSSGSTYYADSVKGRFTISRDNAKNTVYFQMNSLKPEDTAVYYCAAAWHTAYWDGSDTLGGGYWGQGTQVTVSS”, the “polyreactivity (PSR sort gate)” value is “low polyreactivity”.

Consider “QVQLVESGGGLVQAGGSLRLSSAASGSIFTYYAMGWYRQAPGKERELLASISRHGGSTYYADSVKGRFTISRDNAKNTVYLQMNSLKPEDTAVYYCNARGWHTKVVSPRYYWGQGTQVTVSS”, for which the “polyreactivity (PSR sort gate)” value is given as “high polyreactivity”.

Take “QVQLVESGGGLVQAGGSLRLSSAASGSIFVLYAMGWYRQAPGKERELVAAIDVGGGSTYYADSVKGRFTISRDNAKNTVYLQMNSLKPEDTAVYYCAAELYYTYRWYDYWGQGTQVTVSS”: the “polyreactivity (PSR sort gate)” value is recorded as “high polyreactivity”.

“QVQLVESGGGLVQAGGSLRLSSAASGSILSYNAMGWYRQAPGKERELVASITGTGRSTRYADSVKGRFTISRDNAKNSVYLQMNSLKPEDTAVYYCATAAWWYYRIYHEFGYWGQGTQVTVSS”: the “polyreactivity (PSR sort gate)” value is “high polyreactivity”.

For the sequence “QVQLVESGGGLVQAGGSLRLSSAASGSNFWYYAMGWYRQSPGKERELVAAISAISGTTYYADSEKGRFTISRDNAKNTVYLQMNSLKPEDTAVYYCNKDASWWTDRSYDYWGQGTQVTVSS”, the “polyreactivity (PSR sort gate)” value is recorded as “low polyreactivity”.

As for “QVQLVESGGGLVQAGGSLRLSSAASGSTFAFNAMGWYRHAHGKEREFVARITWSDGSTYYADSVKGRFTISRDNAKNTVYLQMNCLKPEDTAVYYCARDPTEQAIARWTYDYWGQGTQVTVSS”, the “polyreactivity (PSR sort gate)” value is “low polyreactivity”.

As for “QVQLVESGGGLVQAGGSLRLSSAASGSTFEAYTMGWYRPAPGKERELVAAISRSGGSTYYADSVKGRFTISRDNAKNTVYLQMNSLKPEDTAVYYCAASRYIGYNYWGQGTQVNVSS”, the “polyreactivity (PSR sort gate)” value is “high polyreactivity”.

Take “QVQLVESGGGLVQAGGSLRLSSAASGSTFGIYAMGWYRQAPGKERELVAAISSGGSTNYADSVKGRFTISRDNAKNTVYLQMNSLKPEDTAVYYCAVESVYEYGGYVDSAFDYWGQGTQVTVSS”: the “polyreactivity (PSR sort gate)” value is “low polyreactivity”.

For the sequence “QVQLVESGGGLVQAGGSLRLSSAASGSTFGKYARGWYRQAPGKERELVAAITVNAGRTYYADSVKGRFTISRDNAKNTVYLQLNSLKPEDTAVYYCAGVPRRYYARYYYWGQGTQVTVSS”, the “polyreactivity (PSR sort gate)” value is recorded as “high polyreactivity”.

In the case of “QVQLVESGGGLVQAGGSLRLSSAASGSTFGPYPMGWYRPAPGKERELVATISSGGSTYYADSVKGRFTISRDNAKNTVYLQMNSLKPEDTAVYYCAARYWSIYDYWGQGTQVTVSS”, the “polyreactivity (PSR sort gate)” value is listed as “low polyreactivity”.

On to “QVQLVESGGGLVQAGGSLRLSSAASGSTFGYYAMRWYRQAPGKARELVAAISSAGSTNDADSVKGRFTISRDNAKNTVYLQMNSLKPEDTAVYYCAAKVRVRWHTGLVTRDYDCGQGTQVTVSS”, for which the “polyreactivity (PSR sort gate)” value is “high polyreactivity”.

For the sequence “QVQLVESGGGLVQAGGSLRLSSAASGSTFHLYAMGWYRQAPGKEREFVAAIRGRGGNTYADSVKGRFTISRDNAKNTVYLQMNSLKPEDTAVYYCAAPLLRDLRSPYSYNYWGQGTQVTVSS”, the “polyreactivity (PSR sort gate)” value is given as “low polyreactivity”.
